B3: GST-MuRF1RM (MuRF1 amino acids 1-115, RING and MFC domains) (domain or fragment, Rattus norvegicus)
chain: MDYKSGLIPDGNAMENLEKQLICPICLEMFTKPVVILPCQHNLCRKCANDIFQAANPYWTNRGGSVSMSGGRFRCPSCRHEVIMDRHGVYGLQRNLLVENIIDIYKQECSSRPLQ
modifications: red fluorescent dye NT-647, covalently, by amine coupling (in the fluorescence assay only)
notes: MuRF1 / TRIM63, Rattus norvegicus, first 115 amino acids (RING and MFC domains); Cloned in pGEX6P3; Immobilised unlabelled by amine coupling in SPR; labelled with NT-647 in the fluorescence assay; also called MuRF1 (in the SPR section); not shown: GST, N-terminal, kept
B4: GST-MuRF3 (full length) (enzyme, UniProt Q9ERP3 1-366, looked up)
chain: MNFTVGFKPLLGDAHNMDNLEKQLICPICLEMFSKPVVILPCQHNLCRKCANDVFQASNPLWQSRGSTTVSSGGRFRCPSCRHEVVLDRHGVYGLQRNLLVENIIDIYKQESSRPLHAKAEQHLMCEEHEDEKINIYCLSCEVPTCSLCKVFGAHKDCEVAPLPTIYKRQKSELSDGIAMLVAGNDRVQAVITQMEEVCQTIEDNSRRQKQLLNQRFETLCAVLEERKGELLQALAREQEEKLQRVRGLIRQYGDHLEGSSKLVESAIQSMEEPQMALYLQQAKELINKVGAMSKVELAGRPEPGYESMEQFSVSVEHVAEMLRTIDFQPGAAGDEEDDDMALDGEEGNAGLEEERLDVPEGSGLH
modifications: fluorochrome, covalently (NT-647 by amine coupling in the methods; NT115 in the results)
notes: Cloned in pGEX6P3

Holding throughout (assay): other fluorescence titration; change in the initial fluorescence of dye-labelled GST-MuRF (10 nM, constant) with a 16-sample serial dilution of the E2; MonolithX (NanoTemper), premium capillaries, 100% MST power, 25 °C; 50 mM HEPES pH 7.4, 150 mM NaCl, 0.005% Tween20, 0.1% dextran
Common to all, as to conditions: both partners purified

Assay [1] has as its target B3.
Assay [2] addresses T1, GST-MuRF3RM (MuRF3 amino acids 1-115, RING and MFC domains) (UniProt Q9ERP3 1-115).
T1 construct: Cloned in pGEX6P3
T1 sequence (looked up): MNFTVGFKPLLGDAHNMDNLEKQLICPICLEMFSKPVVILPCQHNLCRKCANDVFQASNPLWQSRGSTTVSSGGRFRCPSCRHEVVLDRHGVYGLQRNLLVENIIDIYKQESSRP

Assay [3] deals with B4.
Assay [4] addresses T2, UBE2L3 wild type (Mus musculus).
T2 construct: UBE2L3, Mus musculus, full length (amplified from C2C12 cells); Cloned in pET28a; source: E. coli Rosetta (DE3), purified (Ni-NTA)

B1: UBE2E1 (enzyme, Mus musculus)
chain: MSDDDSRASTSSSSSSSSNQQTEKEGSTPKKKESKVSMSKNSKLLSTSAKRIQKELADITLDPPPNCSAGPKGDNIYEWRSTILGPPGSVYEGGVFFLDITFTPEYPFKPPKVTFRTRIYHCNINSQGVICLDILKDNWSPALTISKVLLSICSLLTDCNPADPLVGSIATQYMTNRAEHDRMARQWTKRYAT
notes: UBE2E1, Mus musculus, full length (amplified from C2C12 cells); Cloned in pET28a; source: E. coli Rosetta (DE3), purified (Ni-NTA)
Consider B1, for which the Kd came to 400 nM in assay [1] and 500 nM in assay [2].

B2: UBE2J1 cytosolic part, wild type (domain or fragment, Mus musculus, UniProt Q9JJZ4 1-282, looked up)
chain: METRYNLKSPAVKRLMKEAAELKDPTDHYHAQPLEDNLFEWHFTVRGPPDSDFDGGVYHGRIVLPPEYPMKPPSIILLTANGRFEVGKKICLSISGHHPETWQPSWSIRTALLAIIGFMPTKGEGAIGSLDYTPEERRALAKKSQDFCCEGCGSAMKDVLLPLKSGSGSSQADQEAKELARQISFKAEVNSSGKTIAESDLNQCFSLNDSQDDLPTTFQGATASTSYGAQNPSGAPLPQPTQPAPKNTSMSPRQRRAQQQSQRRPSTSPDVLQGQPPRAHHT
notes: UBE2J1, Mus musculus, cytosolic part (amplified from C2C12 cells); Cloned in pET28a; source: E. coli Rosetta (DE3), purified (Ni-NTA)
The molecule B2 came in with a Kd in assay [3] of 400 nM. This counts as sub-micromolar.

For B3, the binding result in assay [4] is “binds”.

The molecule B4 showed a Kd in assay [4] of 400 nM. That is a sub-micromolar value.

B5: UBE2J2 cytosolic part, wild type (domain or fragment, Mus musculus, UniProt Q6P073 1-226, looked up)
chain: MSNNSNKRAPTTATQRLKQDYLRIKKDPVPYICAEPLPSNILEWHYVVRGPEMTPYEGGYYHGKLIFPREFPFKPPSIYMITPNGRFKCNTRLCLSITDFHPDTWNPAWSVSTILTGLLSFMVEKGPTLGSIETSDFTKKQLAAQSLVFNLKDKVFCELFPEVVEEIKQKQKAQDELSNRPQNLPLPDVVPDGELHRGQHGIQLLNGHAPAAGPNLAGLPQANRHH
notes: UBE2J2, Mus musculus, cytosolic part (amplified from C2C12 cells); Cloned in pET28a; also called EJ2c; source: E. coli Rosetta (DE3), purified (Ni-NTA)
Consider B5, for which the equilibrium dissociation constant (Kd) in assay [3] was found to be 24800 nM.

By Kd is commonly meant the constant that tells how readily two partners part at equilibrium.

Source of the values: paper PMC12103069, “Structure predictions of MuRF1‐UBE2 complexes identify amino acid residues governing interaction selectivity for each MuRF1‐E2 pair” (The Febs Journal, 2025).
